Measurements published in patent US20210401986A1.

Target: cetuximab (unconjugated anti-EGFR antibody)
Test: cell-based or functional assay

Q: For “AffiniPure Donkey Anti-Human IgG, Fcγ Fragment Specific (DxHu) antibody conjugated with IRDye 700DX”, which percent cell death of BxPC3 cells (CellTox Green) after sequential labeling and 690 nm light at 16 J/cm^2 is on record?
A: 90%
